Results on one molecule are retold here after PMC2952847.

One data set has as its target T1, RHAU(ΔGly–RSM)-FLAG (Homo sapiens, UniProt Q9H2U1 105-1008).
T1 sequence: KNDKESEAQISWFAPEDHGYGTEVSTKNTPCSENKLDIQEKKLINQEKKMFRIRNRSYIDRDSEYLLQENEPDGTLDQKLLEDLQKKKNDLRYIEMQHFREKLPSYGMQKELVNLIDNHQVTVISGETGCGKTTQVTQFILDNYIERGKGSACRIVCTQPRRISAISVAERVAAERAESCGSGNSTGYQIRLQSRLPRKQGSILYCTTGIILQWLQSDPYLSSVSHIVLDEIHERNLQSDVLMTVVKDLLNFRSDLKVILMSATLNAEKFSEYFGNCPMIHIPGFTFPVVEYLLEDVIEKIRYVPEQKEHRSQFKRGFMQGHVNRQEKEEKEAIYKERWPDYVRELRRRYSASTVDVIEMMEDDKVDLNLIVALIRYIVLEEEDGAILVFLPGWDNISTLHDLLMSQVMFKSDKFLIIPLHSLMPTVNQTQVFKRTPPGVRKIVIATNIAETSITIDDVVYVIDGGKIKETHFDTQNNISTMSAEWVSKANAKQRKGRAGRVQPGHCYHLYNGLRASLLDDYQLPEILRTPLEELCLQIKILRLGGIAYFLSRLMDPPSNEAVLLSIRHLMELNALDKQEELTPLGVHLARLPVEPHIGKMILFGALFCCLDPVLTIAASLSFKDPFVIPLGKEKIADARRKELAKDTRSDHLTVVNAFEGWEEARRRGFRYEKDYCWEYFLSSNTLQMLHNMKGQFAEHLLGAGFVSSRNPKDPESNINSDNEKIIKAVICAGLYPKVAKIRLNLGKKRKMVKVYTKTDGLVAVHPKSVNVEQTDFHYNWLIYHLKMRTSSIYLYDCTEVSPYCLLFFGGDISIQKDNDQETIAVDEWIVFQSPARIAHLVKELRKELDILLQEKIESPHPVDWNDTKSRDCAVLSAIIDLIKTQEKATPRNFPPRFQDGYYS
Briefly: EMSA.

The target of the next data set is T2, GST-RHAU(WT) (Homo sapiens, UniProt Q9H2U1 1-1008).
T2 sequence: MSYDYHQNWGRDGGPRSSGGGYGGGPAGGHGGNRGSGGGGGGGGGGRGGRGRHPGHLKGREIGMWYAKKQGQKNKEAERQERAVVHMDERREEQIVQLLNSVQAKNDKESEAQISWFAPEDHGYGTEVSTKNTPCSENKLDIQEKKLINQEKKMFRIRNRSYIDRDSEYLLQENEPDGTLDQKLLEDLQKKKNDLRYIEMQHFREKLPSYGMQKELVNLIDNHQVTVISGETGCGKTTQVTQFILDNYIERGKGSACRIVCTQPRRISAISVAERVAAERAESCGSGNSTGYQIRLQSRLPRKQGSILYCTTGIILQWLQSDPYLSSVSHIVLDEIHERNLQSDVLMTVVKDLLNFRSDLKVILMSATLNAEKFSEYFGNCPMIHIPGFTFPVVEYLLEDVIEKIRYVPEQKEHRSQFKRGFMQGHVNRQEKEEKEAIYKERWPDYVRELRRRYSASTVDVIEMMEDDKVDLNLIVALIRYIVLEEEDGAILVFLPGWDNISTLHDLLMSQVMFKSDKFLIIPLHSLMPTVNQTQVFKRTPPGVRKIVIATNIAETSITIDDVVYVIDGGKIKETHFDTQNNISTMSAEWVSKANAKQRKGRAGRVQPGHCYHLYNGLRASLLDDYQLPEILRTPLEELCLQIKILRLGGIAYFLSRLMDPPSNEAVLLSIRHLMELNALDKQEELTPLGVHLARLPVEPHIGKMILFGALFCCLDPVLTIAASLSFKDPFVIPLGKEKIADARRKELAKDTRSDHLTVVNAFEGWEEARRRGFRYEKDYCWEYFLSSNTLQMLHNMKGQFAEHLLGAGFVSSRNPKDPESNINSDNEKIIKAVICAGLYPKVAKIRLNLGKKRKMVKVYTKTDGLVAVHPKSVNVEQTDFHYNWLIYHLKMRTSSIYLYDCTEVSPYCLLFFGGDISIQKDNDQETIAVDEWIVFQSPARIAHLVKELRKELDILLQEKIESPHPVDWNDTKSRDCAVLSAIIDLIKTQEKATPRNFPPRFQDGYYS
The data set can be described thus: EMSA.

B1: tetramolecular G4-rAGA (structured_RNA)
RNA: AAAAAAAAAAAAAAAGGGGGAAAAAAAAAAAAAAA
For B1, the binding result with RHAU(ΔGly–RSM)-FLAG is on record as “no binding”. In addition, in the data set with GST-RHAU(WT), the Kd stood at 14 nM.

Broadly, the Kd is the equilibrium constant for the complex coming apart. Lower therefore signals tighter binding.
